Source: patent publication US20110065649A1

Key:
[1] = target: surface nucleolin on human cells (human), P19338; assay: cell-based or functional assay
[2] = target: surface nucleolin on mouse cells (mouse), P09405; assay: cell-based or functional assay
surface nucleolin on mouse cells (mouse), P09405, sequence (P09405 2-707): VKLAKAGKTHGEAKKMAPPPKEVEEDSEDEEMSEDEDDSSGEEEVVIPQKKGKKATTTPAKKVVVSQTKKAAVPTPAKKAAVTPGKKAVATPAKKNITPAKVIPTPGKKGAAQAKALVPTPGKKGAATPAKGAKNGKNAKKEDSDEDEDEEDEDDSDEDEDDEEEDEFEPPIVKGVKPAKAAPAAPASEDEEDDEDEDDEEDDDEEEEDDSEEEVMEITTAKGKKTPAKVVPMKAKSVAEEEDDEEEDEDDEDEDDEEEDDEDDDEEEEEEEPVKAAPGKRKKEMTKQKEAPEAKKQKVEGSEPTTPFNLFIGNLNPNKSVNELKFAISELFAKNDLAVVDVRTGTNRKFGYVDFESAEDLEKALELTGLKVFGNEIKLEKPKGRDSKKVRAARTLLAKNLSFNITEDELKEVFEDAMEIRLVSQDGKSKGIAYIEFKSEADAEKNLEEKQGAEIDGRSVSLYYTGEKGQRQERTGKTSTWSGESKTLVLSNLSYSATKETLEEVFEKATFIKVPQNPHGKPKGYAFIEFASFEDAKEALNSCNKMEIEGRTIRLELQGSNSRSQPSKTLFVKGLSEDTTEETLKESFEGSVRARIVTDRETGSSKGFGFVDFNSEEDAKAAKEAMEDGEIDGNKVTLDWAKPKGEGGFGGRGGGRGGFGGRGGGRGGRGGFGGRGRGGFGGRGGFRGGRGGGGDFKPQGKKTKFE

surface nucleolin on human cells (human), P19338, sequence (P19338 2-710): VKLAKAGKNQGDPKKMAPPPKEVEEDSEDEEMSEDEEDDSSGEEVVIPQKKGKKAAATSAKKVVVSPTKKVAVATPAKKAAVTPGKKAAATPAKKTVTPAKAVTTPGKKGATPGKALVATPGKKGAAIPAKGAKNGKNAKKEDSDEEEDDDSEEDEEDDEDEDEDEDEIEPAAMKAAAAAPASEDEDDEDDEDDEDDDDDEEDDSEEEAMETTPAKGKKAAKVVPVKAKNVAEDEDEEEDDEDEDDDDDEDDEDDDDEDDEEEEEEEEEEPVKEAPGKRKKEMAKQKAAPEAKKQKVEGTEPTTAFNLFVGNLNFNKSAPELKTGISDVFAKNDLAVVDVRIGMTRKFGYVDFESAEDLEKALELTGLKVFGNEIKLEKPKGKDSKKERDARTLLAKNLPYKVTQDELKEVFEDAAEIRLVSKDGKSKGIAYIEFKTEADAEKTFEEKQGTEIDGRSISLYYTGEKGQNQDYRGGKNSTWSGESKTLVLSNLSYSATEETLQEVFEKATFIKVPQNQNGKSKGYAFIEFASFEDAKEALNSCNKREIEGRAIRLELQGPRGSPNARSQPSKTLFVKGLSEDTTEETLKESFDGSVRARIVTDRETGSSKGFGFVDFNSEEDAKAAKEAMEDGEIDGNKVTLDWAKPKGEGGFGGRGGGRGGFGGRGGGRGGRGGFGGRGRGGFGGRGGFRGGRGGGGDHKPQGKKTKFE

B1: hexavalent compound Nucant 7 (peptide)
chain: KAKPGKAKPGKAKPG
peptide: KPR
modifications: not checked
ID50 (Inhibitory Dose at 50%) of surface nucleolin activity in HeLa P4 cells [1]: < 100 nM
inhibition of surface nucleolin activity in HeLa P4 cells at 0.8 µM [1]: > 95%
inhibition of TNF-alpha and IL-6 production by murine peritoneal macrophages stimulated by 10, 100 and 1000 ng/ml of LPS, at 10 µM of Nucant 7 [2]: > 95%
